Molecular target: L-threonine aldolase from Neptunomonas marine (NmLTA), wild type (Neptunomonas marine)
Assay: crystal structure

Substance: L-threonine aldolase from Neptunomonas marine (NmLTA), wild type (enzyme)
- stoichiometry N: 4
